Results reported in patent US20080201790A1, “Method and product for regulating cell responsiveness to external signals” (priority 1993, published 2008).

T1: JNKK (Homo sapiens, UniProt P45985)
T1 sequence (P45985 1-399): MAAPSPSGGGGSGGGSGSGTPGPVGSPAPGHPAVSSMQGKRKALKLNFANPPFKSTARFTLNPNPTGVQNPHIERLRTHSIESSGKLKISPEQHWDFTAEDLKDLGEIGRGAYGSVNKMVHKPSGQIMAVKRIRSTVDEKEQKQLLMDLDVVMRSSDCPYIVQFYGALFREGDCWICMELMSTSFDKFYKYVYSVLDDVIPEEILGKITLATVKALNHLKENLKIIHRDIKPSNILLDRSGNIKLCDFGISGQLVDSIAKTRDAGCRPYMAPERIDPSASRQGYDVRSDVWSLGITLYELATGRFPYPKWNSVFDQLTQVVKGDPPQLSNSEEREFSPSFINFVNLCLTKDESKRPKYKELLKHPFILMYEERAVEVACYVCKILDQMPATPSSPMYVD

B1: MEKK 2: 619-amino acid MEK kinase protein, SEQ ID No. 6 / 8 (protein)
chain: MGYPYDVPDYASDDQQALNSIMQDLAVLHKPVGQHYLYKKPGKQNLHHQKNRMMFESNLNIEEEKRILQVTRPVKLEDLRSKSKIAFGQSMDLHYTNNELVIPLTTQDDLDKAVELLDRSIHMKSLKILLVVNGSTQATNLEPSPSPEDLNNTPLGAERKKRLSVVGPPNRDRSSPPPGYIPDILHQIARNGSFTSINSEGEFIPESMDQMLDPLSLSSPENSGSGSCPSLDSPLDGESYPKSRMPRAQSYPDNHQEFTDYDNPIFEKFGKGGTYPRRYHVSYHHQEYNDGRKTFPRARRTQGTSFRSPVSFSPTDHSLSTSSGSSVFTPEYDDSRIRRRGSDIDNPTLTVTDISPPSRSPRAPTNWRLGKLLGQGAFGRVYLCYDVDTGRELAVKQVQFNPESPETSKEVNALECEIQLLKNLLHERIVQYYGCLRDPQEKTLSIFMELSPGGSIKDQLKAYGALTENVTRKYTRQILEGVHYLHSNMIVHRDIKGANILRDSTGNIKLGDFGASKRLQTICLSGTGMKSVTGTPYWMSPEVISGEGYGRKADIWSVACTVVEMLTEKPPWAEFEAMAAIFKIATQPTNPKLPPHVSDYTRDFLKRIFVEAKLRPSAEELLRHMFVHYH
B2: MEKK 3: 626-amino acid MEK kinase protein, SEQ ID No. 10 (protein, listed as Mus musculus)
chain: MDEQEALDSIMKDLVALQMSRRTRLSGYETMKNKDTGHPNRQSDVRIKFEHNGERRIIAFSRPVRYEDVEHKVTTVFGQPLDLHYMNNELSILLKNQDDLDKAIDILDRSSSMKSLRILLLSQDRNHTSSSPHSGVSRQVRIKPSQSAGDINTIYQAPEPRSRHLSVSSQNPGRSSPPPGYVPERQQHIARQGSYTSINSEGEFIPETSEQCMLDPLSSAENSLSGSCQSLDRSADSPSFRKSQMSRARSFPDNRKECSDRETQLYDKGVKGGTYPRRYHVSVHHKDYNDGRRTFPRIRRHQGNLFTLVPSSRSLSTNGENMGVAVQYLDPRGRLRSADSENALTVQERNVPTKSPSAPINWRRGKLLGQGAFGRVYLCYDVDTGRELASKQVQFDPDSPETSKEVSALECEIQLLKNLQHERIVQYYGCLRDRAEKILTIFMEYMPGGSVKDQLKAYGALTESVTRKYTRQILEGMSYLHSNMIVHRDIKGANILRDSAGNVKLGDFGASKRLQTICMSGTGIRSVTGTPYWMSPEVISGEGYGRKADVWSLGCTVVEMLTEKPPWAEYEAMAAIFKIATQPTNPQLPSHISEHGRDFLRRIFVEARQRPSAEELLTHHFAQLVY

Experiments:
c-Jun kinase (JNK) = experiment: JNK activity in HEK293 cells transfected with MEKK 2 or 3; assay type: cell-based; settings: for selectivity in activating JNK versus p42/44 MAPK: plasmid DNAs titrated over a range of concentrations; for c-Jun kinase (JNK) activity: transient expression in HEK293 cells
Procedure: JNK activity was measured using GSTc-Jun1-79) coupled to glutathione Sepharose 4B. Cells transfected with MEKK2 or 3 and control transfected cells were lysed in 0.5% Nonidet P-40, 20 mM Tris HCl, pH 7.6, 0.25 M NaCl, 3 mM EDTA, 3 mM EGTA, 1 mM dithiothreitol, 1 mM PMSFm 2 mM sodium vanadate, 20 ug/ml aprotinin, and 5 ug/ml leupeptin. Nuclei were removed by centrifugation at 15,000×g for 10 min and the supernatants (25 ug of protein) were mixed with 10 ul of a slurry of GST c-Jun(1-79) Sepharos (3-5 ug of GST cJun(1-79). The mixture was rotated at 4° C. for 1 h, washed twice in lysis buffer and once in kinase buffer (20 mM Hepes, pH 7.5, 10 mM MgCl2, 20 mM β-glycerophosphate, 10 mM p-nitrophenyl phosphate, 1 mM dithiothreitol, 50 uM sodium vanadate). Beads were suspended in 40 ul of kinase assay buffer containing 10 uCi of [γ32P]ATP and incubated at 30° C. for 20 min. Reaction mixtures were added to Laemmli sample buffer, boiled, and phosphorylated proteins were resolved on SDS-10% polyacrylamide gels. The JNK activity also eluted early from a Mono Q column using a linear sodium chloride elution gradient. […] When JNK activity was assayed following fractionation by Mono Q ion exchange chromatography, 50 ul of each fraction was incubated with the GST cJun(1-79) beads.

p42/44 MAPK = p42/44 MAPK activity in HEK293 cells transfected with MEKK 2 or 3; assay type: cell-based; settings: transient expression in HEK293 cells
Procedure: MAPK activity following Mono Q FPLC fractionation was measured using the epidermal growth factor receptor […] peptide as a selective p42/44 MAPK substrate. Alternatively, for cells transfected with varying amounts of MEKK plasmids, MAPK activity was assayed after elution from DEAE Sephacel columns. […] Thus, even though the kinase domains are approximately 94% conserved, MEKK 2 and 3 differ in their selectivity for regulation of the JNK and p42/44^MAPK pathways. This was particularly evident for MEKK 3 at low plasmid concentrations where the p42/44^MAPK pathway was preferentially activated.

p38 = p38 kinase activity in HEK293 cells transfected with MEKK 2 or 3; assay type: cell-based; settings: immunoprecipitation and in vitro kinase assay
Procedure: The p38 kinase is activated by hyperosmotic conditions and recognizes the transcription factor ATF 2 as an in vitro substrate. Sorbitol treated (0.4M, 20 min) or control HEK293 cells were lysed in the same buffer as that used for immunoprecipitation of p38 using rabbit antiserum raised against the COOH terminal peptide sequence of p38. Immunoprecipitates were washed once in lysis buffer, once in assay buffer (25 mM Hepes, pH 7.4, 25 mM β-glycerophosphate, 25 mM […], 2 mM dithiothreitol, 0.1 mM sodium vanadate) resuspended, and used in an in vitro kinase assay with a recombinant NH2-terminal fragment of ATF 2 (20-50 ng). For analysis of p38 kinase activity from Mono Q FPLC fractions, 20 ul aliquots were mixed with kinase buffer containing 20-50 ng of recombinant ATF 2 and 10 uCi of [γ32P]PATP. Reactions were quenched in Laemmli sample buffer, boiled, and proteins were resolved using SDS 10% PAGE. […] Mono Q FPLC fractionation of lysates from MEKK 2 or 3 transfected HEK293 cells confirmed that p38 kinase activity was similar to that from control transfected cells. ATF 2 is also a substrate for JNK. Fractions 2-8 from cells transfected with MEKK 2 or 3, that contain immunoreactive JNK, have increased kinase activity toward ATF 2. This is a predicted result based on the ability of both MEKK 2 and 3 to stimulate JNK activity in HEK293 cells. […]

MEK 1 = biological target: T2, MEK 1 (Mus musculus, UniProt P31938); experiment: In vitro kinase assay of immunoprecipitated HA-tagged MEKK with recombinant MEK1; assay type: biochemical; settings: 12CA5 immunoprecipitates
T2 construct: polyhistidine (N); made in house; host or cells: pRSETA vector
Procedure: (§1) MEKK 2 Phosphorylates Both MEK 1 and JNK Kinase in Vitro. HEK293 cells expressing MEKK 2 and 3 were lysed in !% Triton x-100, 0.5% Nonidet P-40, 20 mM Tris HCL, pH 7.5, 150 mM NaCl, 20 mM NaF, 0.2 mM sodium vanadate, 1 mM EDTA, […], 1 mM EGTA, 5 mM PMSF. Nuclei were removed by centrifugation at 15,000×g for 5 min. HA epitope-tagged MEKK2 and 3 were immunoprecipitated with the 12CA5 antibody recognizing the HA epitope-tag. The immunoprecipitates were washed twice in lysis buffer, twice in PAN (10 mM Pipes, pH 7.0, 100 mM NaCl, 20 ug/ml aprotinin), suspended in 20 mM Pipes, 10 mM MnCl2, 20 ug/ml aprotinin, and used in an in vitro kinase assay with 20-50 ng of recombinant MEK1 or JNKK as substrates and 20 uCi of [γ^32P]ATP. Reactions were terminated by the addition of Laemmli sample buffer, boiled, and proteins were resolved by SDS-10% PAGE.

JNKK = biological target: T1, JNKK; experiment: In vitro kinase assay of immunoprecipitated HA-tagged MEKK with recombinant JNKK; assay type: biochemical; settings: 12CA5 immunoprecipitates
Procedure: as §1
Incubations were for 30 min at 30° C. in the presence of 50 uM ATP. GST-cJun (1-79) Sepharose beads were then added, and the mixture was rotated at 4° C. for 30 min. The beads were washed, suspended in 40 ul of c-Jun kinase assay buffer containing 20 uCi of [γ32P]ATP, and incubated for 15 min at 30° C. Reaction mixtures were added to Laemmli sample buffer, boiled, and phosphorylated proteins were resolved on SDS 10% PAGE.

c-Jun kinase = c-Jun kinase activation in transfected COS cells; assay type: cell-based; settings: expression in COS cells, FIG. 22
Description: COS cells were transfected with pCMV5 expression plasmid encoding no cDNA insert (control), full length MEKK4 or the truncated MEKK4 encoding only the catalytic kinase domain.

p38 MAPK = experiment: Tyrosine phosphorylation of p38 MAPK in COS cells transfected with MEKK 1 or MEKK 3; assay type: cell-based; settings: forty-eight hours after transfection
Procedure: (§2) COS cells were transfected with the expression plasmid pCVM5 ligated to cDNA clones encoding either MEKK 1 or MEKK 3 protein, or a control pCVM5 plasmid lacking MEKK cDNA inserts. Forty-eight hours after transfection, the COS cells were lysed and the lysate fractionated on a Mono Q FPLC column using conditions described in Example 4. The fractions were analyzed for tyrosine phosphorylation of MAP kinase-like enzymes using the kinase assay described in Example 4.

[1] = tested on: p42 and p44 forms of MAPK; experiment: Phosphorylation of p42 and p44 MAPK in COS cells transfected with MEKK 1 or MEKK 3; assay type: cell-based; settings: forty-eight hours after transfection
Procedure: as §2

Molecule	selectivity in activating JNK versus p42/44 MAPK (c-Jun kinase (JNK))	c-Jun kinase (JNK) activity (c-Jun kinase (JNK))	p42/44 MAPK activity (p42/44 MAPK)	p38 kinase activity (p38)	phosphorylation of MEK 1 in vitro (MEK 1)	phosphorylation of JNKK in vitro (JNKK)	activation of the c-Jun kinase pathway (c-Jun kinase)	phosphorylation of p38 MAPK (p38 MAPK)	phosphorylation of p42 and p44 MAPK [1]
B1	greater selectivity for stimulation of the JNK pathway	stimulation of c-Jun kinase (JNK) activity	stimulated p42/44^MAPK activity	neither MEKK 2 nor MEKK 3 stimulated p38 kinase activity	clearly phosphorylates both MEK 1 and JNKK	clearly phosphorylates both MEK 1 and JNKK	also activate the c-Jun kinase pathway		
B2	greater selectivity for activating p42/44 MAPK relative to JNK	stimulation of c-Jun kinase (JNK) activity	stimulated p42/44^MAPK activity	neither MEKK 2 nor MEKK 3 stimulated p38 kinase activity	did not show measurable kinase activity toward MEK 1 or JNKK	did not show measurable kinase activity toward MEK 1 or JNKK	also activate the c-Jun kinase pathway	induces tyrosine phosphorylation of p38 MAPK	induces tyrosine phosphorylation
